Assays:
Test in all cases: affinity purification with mass spectrometry; purified GST-VHH fusion protein as bait with lysate of immature chicken bone marrow DCs (day 6); in vitro pull-down, then HPLC-MS (done by ZoonBio Biotechnology)
Conditions in all cases: one partner purified
[1] = biological target: T1, RING-type E3 ubiquitin transferase (Gallus gallus (endogenous, immature …, UniProt A0A8V0YPN2))
T1 construct: RING-type E3 ubiquitin transferase, Gallus gallus, GN = UHRF2; also called UHRF2; source: endogenous, chicken bone marrow DC lysate

[2] = biological target: T2, RanGAP1_C domain-containing protein (Gallus gallus, UniProt A0A8V0YG17)
T2 construct: RanGAP1_C domain-containing protein, Gallus gallus, GN = RANGAP1; source: endogenous, chicken bone marrow DC lysate

[3] = biological target: T3, Collagen alpha-2(VI) chain (Gallus gallus (SPF chick), UniProt P15988)
T3 construct: Collagen alpha-2(VI) chain, Gallus gallus, GN = COL6A2; also called COL6A2; source: endogenous, chicken bone marrow DC lysate
T3 sequence (P15988 28-1022): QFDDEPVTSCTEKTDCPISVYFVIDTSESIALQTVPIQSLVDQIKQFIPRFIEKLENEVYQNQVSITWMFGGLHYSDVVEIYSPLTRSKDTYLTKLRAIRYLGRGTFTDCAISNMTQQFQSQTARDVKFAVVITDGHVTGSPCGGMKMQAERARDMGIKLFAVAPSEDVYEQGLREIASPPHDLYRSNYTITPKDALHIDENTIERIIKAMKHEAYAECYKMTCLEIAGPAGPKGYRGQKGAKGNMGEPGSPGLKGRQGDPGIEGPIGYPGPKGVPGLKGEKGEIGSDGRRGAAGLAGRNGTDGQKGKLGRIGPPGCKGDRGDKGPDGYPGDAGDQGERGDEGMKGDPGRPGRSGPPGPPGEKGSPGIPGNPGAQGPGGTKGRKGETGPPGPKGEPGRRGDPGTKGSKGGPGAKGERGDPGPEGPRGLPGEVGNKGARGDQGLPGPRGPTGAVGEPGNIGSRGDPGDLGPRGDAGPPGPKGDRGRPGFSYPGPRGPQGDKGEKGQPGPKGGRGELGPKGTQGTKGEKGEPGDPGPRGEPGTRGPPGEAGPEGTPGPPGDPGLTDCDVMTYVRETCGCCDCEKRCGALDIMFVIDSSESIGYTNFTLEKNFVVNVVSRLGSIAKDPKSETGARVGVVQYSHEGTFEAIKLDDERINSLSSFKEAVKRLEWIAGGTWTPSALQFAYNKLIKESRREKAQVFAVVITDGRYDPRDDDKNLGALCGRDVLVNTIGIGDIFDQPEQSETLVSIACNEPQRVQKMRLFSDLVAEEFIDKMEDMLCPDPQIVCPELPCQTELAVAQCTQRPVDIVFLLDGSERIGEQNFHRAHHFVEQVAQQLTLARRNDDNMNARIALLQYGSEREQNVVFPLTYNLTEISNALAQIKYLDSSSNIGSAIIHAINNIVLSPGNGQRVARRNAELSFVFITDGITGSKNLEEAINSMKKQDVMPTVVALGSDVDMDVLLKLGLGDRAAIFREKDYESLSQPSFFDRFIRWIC

[4] = biological target: T4, zf-C2H2_7 domain-containing protein (Gallus gallus (SPF chick), UniProt A0A8V0Z1I9)
T4 construct: zf-C2H2_7 domain-containing protein, Gallus gallus, GN = PRR35; also called PRR35; source: endogenous, chicken bone marrow DC lysate
T4 sequence (A0A8V0Z1I9 entry or part of it): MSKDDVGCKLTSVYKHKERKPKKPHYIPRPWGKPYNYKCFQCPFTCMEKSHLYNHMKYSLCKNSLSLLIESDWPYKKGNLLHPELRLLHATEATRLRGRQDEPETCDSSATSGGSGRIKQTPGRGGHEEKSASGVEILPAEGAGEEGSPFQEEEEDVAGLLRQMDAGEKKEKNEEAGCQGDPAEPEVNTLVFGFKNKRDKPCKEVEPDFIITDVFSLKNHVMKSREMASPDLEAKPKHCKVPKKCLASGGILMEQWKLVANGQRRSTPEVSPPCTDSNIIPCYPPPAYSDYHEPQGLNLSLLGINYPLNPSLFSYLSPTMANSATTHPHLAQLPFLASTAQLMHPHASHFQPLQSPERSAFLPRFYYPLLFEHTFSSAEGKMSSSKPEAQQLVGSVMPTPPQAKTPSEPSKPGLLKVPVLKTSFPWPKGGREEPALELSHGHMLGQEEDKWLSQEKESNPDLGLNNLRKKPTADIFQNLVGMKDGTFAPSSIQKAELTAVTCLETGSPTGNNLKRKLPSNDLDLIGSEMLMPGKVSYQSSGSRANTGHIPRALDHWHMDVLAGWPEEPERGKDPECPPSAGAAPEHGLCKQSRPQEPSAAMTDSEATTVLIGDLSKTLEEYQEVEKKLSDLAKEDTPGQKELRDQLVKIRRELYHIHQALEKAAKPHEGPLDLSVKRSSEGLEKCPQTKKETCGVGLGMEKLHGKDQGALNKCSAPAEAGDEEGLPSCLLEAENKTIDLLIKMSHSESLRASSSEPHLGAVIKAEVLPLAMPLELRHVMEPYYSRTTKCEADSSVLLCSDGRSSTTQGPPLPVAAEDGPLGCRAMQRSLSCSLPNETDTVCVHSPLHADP

[5] = biological target: T5, Uncharacterized protein GN = GPC2 (Gallus gallus (SPF chick), UniProt A0A8V0ZXK1)
T5 construct: Uncharacterized protein, Gallus gallus, GN = GPC2; source: endogenous, chicken bone marrow DC lysate

[6] = biological target: T6, Voltage-dependent anion-selective channel protein 1 (Gallus gallus, UniProt E1BYN7)
T6 construct: Voltage-dependent anion-selective channel protein 1, Gallus gallus, GN = VDAC1; also called VDAC1; VDAC; source: endogenous, chicken bone marrow DC lysate

[7] = biological target: T7, Uncharacterized protein GN = RAP1A (Gallus gallus (SPF chick), UniProt F1NSA8)
T7 construct: Uncharacterized protein, Gallus gallus, GN = RAP1A; source: endogenous, chicken bone marrow DC lysate
T7 sequence (F1NSA8 entry or part of it): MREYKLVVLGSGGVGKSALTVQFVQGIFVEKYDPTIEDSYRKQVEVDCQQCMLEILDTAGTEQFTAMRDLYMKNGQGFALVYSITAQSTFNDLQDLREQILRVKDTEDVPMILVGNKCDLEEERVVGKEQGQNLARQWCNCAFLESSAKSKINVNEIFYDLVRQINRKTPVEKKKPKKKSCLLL

[8] = biological target: T8, UBX domain-containing protein 2B (Gallus gallus, UniProt A0A1D5P1A7)
T8 construct: UBX domain-containing protein 2B, Gallus gallus, GN = UBXN2B; also called UBXN2B; source: endogenous, chicken bone marrow DC lysate
T8 sequence (Q5ZLK2 whole entry, the tested form may be a part): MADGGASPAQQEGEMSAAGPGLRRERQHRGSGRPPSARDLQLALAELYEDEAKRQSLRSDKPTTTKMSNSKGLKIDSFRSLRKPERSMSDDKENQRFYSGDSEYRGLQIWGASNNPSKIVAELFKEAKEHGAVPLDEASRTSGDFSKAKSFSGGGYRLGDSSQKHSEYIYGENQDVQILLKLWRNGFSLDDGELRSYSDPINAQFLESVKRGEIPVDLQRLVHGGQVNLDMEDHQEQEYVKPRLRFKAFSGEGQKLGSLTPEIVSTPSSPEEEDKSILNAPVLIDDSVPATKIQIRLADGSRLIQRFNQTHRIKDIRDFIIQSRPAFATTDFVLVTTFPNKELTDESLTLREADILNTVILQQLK

[9] = biological target: T9, Protein disulfide-isomerase (Gallus gallus (SPF chick), UniProt P09102)
T9 construct: Protein disulfide-isomerase, Gallus gallus, GN = P4HB; also called P4HB; source: endogenous, chicken bone marrow DC lysate

[10] = biological target: T10, SET domain-containing protein (Gallus gallus, UniProt A0A1D5PNH9)
T10 construct: SET domain-containing protein, Gallus gallus, GN = PRDM11; also called PRDM11; source: endogenous, chicken bone marrow DC lysate

[11] = biological target: T11, Extracellular serine/threonine protein kinase FAM20C isoform X1 (Gallus gallus, UniProt A0A3G2WC03)
T11 construct: Extracellular serine/threonine protein kinase FAM20C isoform X1, Gallus gallus; no GN field printed, the symbol stands in the name; source: endogenous, chicken bone marrow DC lysate

[12] = biological target: T12, Uncharacterized protein GN = ERCC5 (Gallus gallus (SPF chick), UniProt F1P266)
T12 construct: Uncharacterized protein, Gallus gallus, GN = ERCC5; source: endogenous, chicken bone marrow DC lysate
T12 sequence (F1P266 entry or part of it): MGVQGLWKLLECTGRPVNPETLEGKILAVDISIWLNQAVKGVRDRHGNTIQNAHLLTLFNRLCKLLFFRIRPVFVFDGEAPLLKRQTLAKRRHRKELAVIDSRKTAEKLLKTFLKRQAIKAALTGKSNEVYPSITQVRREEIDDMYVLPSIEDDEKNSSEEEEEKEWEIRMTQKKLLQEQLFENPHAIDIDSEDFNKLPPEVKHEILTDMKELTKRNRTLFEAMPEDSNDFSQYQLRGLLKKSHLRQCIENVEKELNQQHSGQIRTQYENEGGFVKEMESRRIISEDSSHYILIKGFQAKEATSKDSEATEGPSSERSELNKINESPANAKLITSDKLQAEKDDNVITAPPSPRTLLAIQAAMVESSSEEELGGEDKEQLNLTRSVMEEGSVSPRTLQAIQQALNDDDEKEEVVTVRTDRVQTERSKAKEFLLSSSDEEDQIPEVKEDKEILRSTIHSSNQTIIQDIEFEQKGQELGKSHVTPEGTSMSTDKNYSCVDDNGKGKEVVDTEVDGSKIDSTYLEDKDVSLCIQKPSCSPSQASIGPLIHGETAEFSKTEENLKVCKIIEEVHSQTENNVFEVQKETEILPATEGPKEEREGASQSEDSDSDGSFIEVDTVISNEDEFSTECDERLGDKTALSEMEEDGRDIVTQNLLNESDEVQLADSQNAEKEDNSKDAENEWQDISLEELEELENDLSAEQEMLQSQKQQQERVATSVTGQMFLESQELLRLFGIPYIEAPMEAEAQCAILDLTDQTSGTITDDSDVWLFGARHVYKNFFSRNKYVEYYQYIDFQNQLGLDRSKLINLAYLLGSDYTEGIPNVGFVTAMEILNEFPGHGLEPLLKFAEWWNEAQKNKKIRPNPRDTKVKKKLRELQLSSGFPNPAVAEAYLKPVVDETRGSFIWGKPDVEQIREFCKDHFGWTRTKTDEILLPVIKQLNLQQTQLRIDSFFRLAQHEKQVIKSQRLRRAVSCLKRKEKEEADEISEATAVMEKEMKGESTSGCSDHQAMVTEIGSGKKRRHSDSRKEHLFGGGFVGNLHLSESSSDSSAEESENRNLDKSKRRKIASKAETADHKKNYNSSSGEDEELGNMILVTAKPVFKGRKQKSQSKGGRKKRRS

Calreticulin = biological target: T13, Calreticulin (Gallus gallus, UniProt A0A8V0X980)
T13 construct: Calreticulin, Gallus gallus, GN = CALR; source: endogenous, chicken bone marrow DC lysate

[13] = biological target: T14, E3 ubiquitin-protein ligase TRIM71 (Gallus gallus (SPF chick), UniProt Q1PRL4)
T14 construct: E3 ubiquitin-protein ligase TRIM71, Gallus gallus, GN = TRIM71; source: endogenous, chicken bone marrow DC lysate
T14 sequence (Q1PRL4 whole entry): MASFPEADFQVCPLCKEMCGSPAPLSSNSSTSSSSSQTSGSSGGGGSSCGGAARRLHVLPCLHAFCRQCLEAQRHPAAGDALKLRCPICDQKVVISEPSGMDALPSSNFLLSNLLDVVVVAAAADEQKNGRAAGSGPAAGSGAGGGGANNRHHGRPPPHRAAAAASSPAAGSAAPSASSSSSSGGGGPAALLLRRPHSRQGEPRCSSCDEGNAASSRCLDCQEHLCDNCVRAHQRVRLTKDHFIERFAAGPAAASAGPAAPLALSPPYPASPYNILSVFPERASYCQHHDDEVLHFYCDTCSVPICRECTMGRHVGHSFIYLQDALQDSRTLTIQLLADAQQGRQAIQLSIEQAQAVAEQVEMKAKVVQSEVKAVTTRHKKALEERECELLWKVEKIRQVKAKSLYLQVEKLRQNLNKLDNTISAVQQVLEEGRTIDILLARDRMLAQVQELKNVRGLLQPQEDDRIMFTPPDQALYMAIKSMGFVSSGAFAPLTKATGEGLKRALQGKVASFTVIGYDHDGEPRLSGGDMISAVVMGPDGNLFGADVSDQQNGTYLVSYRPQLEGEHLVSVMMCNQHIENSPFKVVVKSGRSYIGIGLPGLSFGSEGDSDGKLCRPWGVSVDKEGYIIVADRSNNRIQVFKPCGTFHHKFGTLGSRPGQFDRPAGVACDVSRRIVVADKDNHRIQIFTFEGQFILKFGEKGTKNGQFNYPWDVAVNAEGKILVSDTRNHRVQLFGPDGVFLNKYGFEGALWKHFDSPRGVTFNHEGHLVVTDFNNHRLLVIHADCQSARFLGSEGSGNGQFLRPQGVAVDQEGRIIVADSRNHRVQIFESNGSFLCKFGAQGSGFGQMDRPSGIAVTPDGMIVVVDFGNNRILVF

[14] = biological target: T15, Uncharacterized protein GN = ZBTB26 (Gallus gallus, UniProt A0A1D5NTV7)
T15 construct: Uncharacterized protein, Gallus gallus, GN = ZBTB26; source: endogenous, chicken bone marrow DC lysate
T15 sequence (A0A1D5NTV7 entry or part of it): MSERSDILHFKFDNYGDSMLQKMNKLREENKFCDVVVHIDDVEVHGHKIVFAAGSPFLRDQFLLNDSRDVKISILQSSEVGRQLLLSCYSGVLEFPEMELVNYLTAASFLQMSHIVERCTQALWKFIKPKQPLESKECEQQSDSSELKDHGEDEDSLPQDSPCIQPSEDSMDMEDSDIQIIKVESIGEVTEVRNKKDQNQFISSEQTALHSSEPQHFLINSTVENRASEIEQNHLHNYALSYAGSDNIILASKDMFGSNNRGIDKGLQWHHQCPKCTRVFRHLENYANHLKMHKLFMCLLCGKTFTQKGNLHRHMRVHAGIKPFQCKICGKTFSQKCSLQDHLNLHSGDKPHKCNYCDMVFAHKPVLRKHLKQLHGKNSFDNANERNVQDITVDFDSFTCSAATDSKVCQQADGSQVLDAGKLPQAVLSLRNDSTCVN

[15] = biological target: T16, BTB domain-containing protein (Gallus gallus, UniProt A0A1D5NYT7)
T16 construct: BTB domain-containing protein, Gallus gallus, GN = KLHL26; also called KLHL26; source: endogenous, chicken bone marrow DC lysate

[16] = biological target: T17, Glutathione S-transferase (Gallus gallus (SPF chick), UniProt Q08392)
T17 construct: Glutathione S-transferase, Gallus gallus; no gene name printed; source: endogenous, chicken bone marrow DC lysate
T17 sequence (Q08392 whole entry): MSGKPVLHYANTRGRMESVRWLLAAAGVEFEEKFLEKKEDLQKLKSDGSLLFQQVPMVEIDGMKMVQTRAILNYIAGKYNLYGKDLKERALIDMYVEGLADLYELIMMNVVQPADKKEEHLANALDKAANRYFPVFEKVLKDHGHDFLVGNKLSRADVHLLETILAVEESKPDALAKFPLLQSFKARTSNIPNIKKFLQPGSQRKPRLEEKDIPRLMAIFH

[17] = biological target: T18, Uncharacterized protein GN = LCP1 (Gallus gallus (SPF chick), UniProt Q5ZLW0)
T18 construct: Uncharacterized protein, Gallus gallus, GN = LCP1; source: endogenous, chicken bone marrow DC lysate

Measured: binding result

B1: GST-VHH-74 (VHH)
VHH: QVQLVESGGGLVQEGGSLRLSCVVSGSRDSINAMGWYRQAPGKQRELVATVAGVGSTNYAASVKGRFSISMDNAKNTAYLQMNSLKPEDTAVYYCVADLRGSDRWLWAQGTQVTVSA
notes: VHH from a non-immunised alpaca library; VHH gene of phage-74 fused with the GST gene in pGEX-4T-1; also called VVH-74; source: expressed from pGEX-4T-1 and purified
binds: [1] | [2] | [3] | [4] | [5] | [6] | [7] | [8]

B2: GST-VHH-54 (VHH)
VHH: QVQLVESGGGLVQPGGSLTLSCAASGFTFSKYPMTWVRQAPGKGLEWVSTITSGGTTTYADSVKGRFTISRDNAKDTLYLQMNSLKPEDTAIYYCAELGLPPGGQGTQVTVSS
notes: VHH from a non-immunised alpaca library; VHH gene of phage-54 fused with the GST gene in pGEX-4T-1; also called VVH-54; VVH54; source: expressed from pGEX-4T-1 and purified
binds: [9] | [10] | [11] | [12] | Calreticulin | [13] | [14] | [15] | [16] | [17]
